# According to paper PMC3024538:
# Target: HLA A*0201 α chain with β2m, recombinant, biotinylated
# Assay: SPR
substance,measurement,value
Melan-A/MART-1 26-35 peptide […],half-life of the pMHCI complex,6 h
